Test results: patent US20250263462A1 (US Dept. of Health and Human Services, published 2025)
Read-outs that look alike come from different tables or passages of the source.

Experiments:
Experiment in all cases: cell-based or functional assay
[1] = target: T1, KRAS G12D 10-mer peptide … (SEQ ID NO: 2) presented by HLA-A11 on pulsed cells (human, UniProt A*11:01)
[2] = target: T2, KRAS G12D 9-mer peptide KRAS8-16 … (SEQ ID NO: 34) presented by HLA-A11 on pulsed cells (human, UniProt A*11:01)
[3] = target: T3, WT KRAS 10-mer peptide (SEQ ID NO: 30) presented by HLA-A11 on pulsed cells (human, UniProt A*11:01)
[4] = target: HLA-A11 on COS7/A11 cells expressing the WT KRAS minigene (23-mer SEQ ID NO: 118) (human, UniProt A*11:01)
[5] = target: HLA-A11 on COS7/A11 cells expressing the KRAS G12D minigene (23-mer SEQ ID NO: 119) (human, UniProt A*11:01)
[6] = target: HLA-A11 on COS7/A11 cells expressing the KRAS G12V minigene (23-mer SEQ ID NO: 120) (human, UniProt A*11:01)
[7] = target: T1, KRAS G12D 10-mer peptide … (SEQ ID NO: …); remark: listed apart in the source
[8] = target: T3, WT KRAS 10-mer peptide (SEQ ID NO: 30) …; remark: listed apart in the source
[9] = target: KRAS G12V 9-mer peptide … (SEQ ID NO: 35) presented by HLA-A11 on pulsed cells (human, UniProt A*11:01)
[10] = target: T1, KRAS G12D 10-mer peptide … (SEQ ID NO: …); remark: listed apart in the source
[11] = target: T2, KRAS G12D 9-mer peptide KRAS8-16 … (SEQ …); remark: listed apart in the source
[12] = target: T3, WT KRAS 10-mer peptide (SEQ ID NO: 30) …; remark: listed apart in the source

B1: TRAV3-3*01/TRBV4*01 murine anti-KRAS G12V TCR (SEQ ID NOs: 133 and 134) (TCR, V domains shown)
V domain 1: GEQVEQRPPHLSVREGDSAVITCTYTDPNSYYFFWYKQEPGASLQLLMKVFSSTEINEGQGFTVLLNKKDKRLSLNLTAAHPGDSAAYFCAVSGGTNSAGNKLTFGIGTRVLVRP
V domain 2: ETAVFQTPNYHVTQVGNEVSFNCKQTLGHDTMYWYKQDSKKLLKIMFSYNNKQLIVNETVPRRFSPQSSDKAHLNLRIKSVEPEDSAVYLCASSRDWGPAEQFFGPGTRLTVLE
IFN-γ, PBL + Cos7/A11 pulsed at 10^-6 (10^× µM) [1]: 43 pg/mL
IFN-γ, PBL + Cos7/A11 pulsed at 10^-7 (10^× µM) [1]: 40 pg/mL
IFN-γ, PBL + Cos7/A11 pulsed at 10^-8 (10^× µM) [1]: 46 pg/mL
IFN-γ, PBL + Cos7/A11 pulsed at 10^-9 (10^× µM) [1]: 41 pg/mL
IFN-γ, PBL + Cos7/A11 pulsed at 10^-10 (10^× µM) [1]: 53 pg/mL
IFN-γ, PBL + Cos7/A11 pulsed at 10^-11 (10^× µM) [1]: 43 pg/mL
IFN-γ, PBL + Cos7/A11 pulsed at 10^-12 (10^× µM) [1]: 49 pg/mL
IFN-γ, PBL + Cos7/A11 pulsed at 10^-13 (10^× µM) [1]: 49 pg/mL
IFN-γ, PBL + Cos7/A11 pulsed at 10^-6 (10^× µM) [2]: 47 pg/mL
IFN-γ, PBL + Cos7/A11 pulsed at 10^-7 (10^× µM) [2]: 48 pg/mL
IFN-γ, PBL + Cos7/A11 pulsed at 10^-8 (10^× µM) [2]: 49 pg/mL
IFN-γ, PBL + Cos7/A11 pulsed at 10^-9 (10^× µM) [2]: 44 pg/mL
IFN-γ, PBL + Cos7/A11 pulsed at 10^-10 (10^× µM) [2]: 52 pg/mL
IFN-γ, PBL + Cos7/A11 pulsed at 10^-11 (10^× µM) [2]: 49 pg/mL
IFN-γ, PBL + Cos7/A11 pulsed at 10^-12 (10^× µM) [2]: 55 pg/mL
IFN-γ, PBL + Cos7/A11 pulsed at 10^-13 (10^× µM) [2]: 52 pg/mL
IFN-γ, PBL + Cos7/A11 pulsed at 10^-6 (10^× µM) [3]: 50 pg/mL
IFN-γ, PBL + Cos7/A11 pulsed at 10^-7 (10^× µM) [3]: 42 pg/mL
IFN-γ, PBL + Cos7/A11 pulsed at 10^-8 (10^× µM) [3]: 50 pg/mL
IFN-γ, PBL + Cos7/A11 pulsed at 10^-9 (10^× µM) [3]: 50 pg/mL
IFN-γ, PBL + Cos7/A11 pulsed at 10^-10 (10^× µM) [3]: 48 pg/mL
IFN-γ, PBL + Cos7/A11 pulsed at 10^-11 (10^× µM) [3]: 55 pg/mL
IFN-γ, PBL + Cos7/A11 pulsed at 10^-12 (10^× µM) [3]: 47 pg/mL
IFN-γ, PBL + Cos7/A11 pulsed at 10^-13 (10^× µM) [3]: 68 pg/mL
IFN-γ, PBL + Cos7/A11 minigene transfectant [4]: 41 pg/mL
IFN-γ, PBL + Cos7/A11 minigene transfectant [5]: 38 pg/mL
IFN-γ, PBL + Cos7/A11 minigene transfectant [6]: 11100 pg/mL
IFN-γ, PBL + pulsed Cos7/A11 [7]: 39 pg/mL
IFN-γ, PBL + pulsed Cos7/A11 [8]: 36 pg/mL

B2: TRAV19*01/TRBV13-1*02 murine anti-KRAS G12V TCR (SEQ ID NOs: 145 and 146) (TCR, V domains shown)
V domain 1: GQQVKQSSPSLTVQEGGILILNCDYENDMFDYFAWYKKYPDNSPTLLISVRSNVDKREDGRFTVFLNKSGKHFSLHITASQPEDTAVYLCAAGDSGGSNYKLTFGKGTLLTVTP
V domain 2: EAAVTQSPRNKVTVTGGNVTLSCRQTNSHNYMYWYRQDTGHGLRLIHYSYGAGNLQIGDVPDGYKATRTTQEDFFLLLELASPSQTSLYFCASASWGGYAEQFFGPGTRLTVLE
IFN-γ, PBL + Cos7/A11 minigene transfectant [4]: 92 pg/mL
IFN-γ, PBL + Cos7/A11 minigene transfectant [5]: 81 pg/mL
IFN-γ, PBL + Cos7/A11 minigene transfectant [6]: 18100 pg/mL
IFN-γ, PBL + Cos7/A11 pulsed at 10^-6 (10^× µM) [9]: 112 pg/mL
IFN-γ, PBL + Cos7/A11 pulsed at 10^-7 (10^× µM) [9]: 70 pg/mL
IFN-γ, PBL + Cos7/A11 pulsed at 10^-8 (10^× µM) [9]: 52 pg/mL
IFN-γ, PBL + Cos7/A11 pulsed at 10^-9 (10^× µM) [9]: 55 pg/mL
IFN-γ, PBL + Cos7/A11 pulsed at 10^-10 (10^× µM) [9]: 64 pg/mL
IFN-γ, PBL + Cos7/A11 pulsed at 10^-11 (10^× µM) [9]: 62 pg/mL
IFN-γ, PBL + Cos7/A11 pulsed at 10^-12 (10^× µM) [9]: 66 pg/mL
IFN-γ, PBL + Cos7/A11 pulsed at 10^-13 (10^× µM) [9]: 64 pg/mL
IFN-γ, PBL + Cos7/A11 pulsed at 10^-6 (10^× µM) [10]: 61 pg/mL
IFN-γ, PBL + Cos7/A11 pulsed at 10^-7 (10^× µM) [10]: 50 pg/mL
IFN-γ, PBL + Cos7/A11 pulsed at 10^-8 (10^× µM) [10]: 49 pg/mL
IFN-γ, PBL + Cos7/A11 pulsed at 10^-9 (10^× µM) [10]: 59 pg/mL
IFN-γ, PBL + Cos7/A11 pulsed at 10^-10 (10^× µM) [10]: 52 pg/mL
IFN-γ, PBL + Cos7/A11 pulsed at 10^-11 (10^× µM) [10]: 64 pg/mL
IFN-γ, PBL + Cos7/A11 pulsed at 10^-12 (10^× µM) [10]: 62 pg/mL
IFN-γ, PBL + Cos7/A11 pulsed at 10^-13 (10^× µM) [10]: 63 pg/mL
IFN-γ, PBL + Cos7/A11 pulsed at 10^-6 (10^× µM) [11]: 63 pg/mL
IFN-γ, PBL + Cos7/A11 pulsed at 10^-7 (10^× µM) [11]: 57 pg/mL
IFN-γ, PBL + Cos7/A11 pulsed at 10^-8 (10^× µM) [11]: 48 pg/mL
IFN-γ, PBL + Cos7/A11 pulsed at 10^-9 (10^× µM) [11]: 54 pg/mL
IFN-γ, PBL + Cos7/A11 pulsed at 10^-10 (10^× µM) [11]: 62 pg/mL
IFN-γ, PBL + Cos7/A11 pulsed at 10^-11 (10^× µM) [11]: 52 pg/mL
IFN-γ, PBL + Cos7/A11 pulsed at 10^-12 (10^× µM) [11]: 57 pg/mL
IFN-γ, PBL + Cos7/A11 pulsed at 10^-13 (10^× µM) [11]: 70 pg/mL
IFN-γ, PBL + Cos7/A11 pulsed at 10^-6 (10^× µM) [12]: 57 pg/mL
IFN-γ, PBL + Cos7/A11 pulsed at 10^-7 (10^× µM) [12]: 56 pg/mL
IFN-γ, PBL + Cos7/A11 pulsed at 10^-8 (10^× µM) [12]: 57 pg/mL
IFN-γ, PBL + Cos7/A11 pulsed at 10^-9 (10^× µM) [12]: 49 pg/mL
IFN-γ, PBL + Cos7/A11 pulsed at 10^-10 (10^× µM) [12]: 57 pg/mL
IFN-γ, PBL + Cos7/A11 pulsed at 10^-11 (10^× µM) [12]: 65 pg/mL
IFN-γ, PBL + Cos7/A11 pulsed at 10^-12 (10^× µM) [12]: 67 pg/mL
IFN-γ, PBL + Cos7/A11 pulsed at 10^-13 (10^× µM) [12]: 70 pg/mL
IFN-γ, PBL + pulsed Cos7/A11 [7]: 94 pg/mL
IFN-γ, PBL + pulsed Cos7/A11 [8]: 90 pg/mL
